Consider 14 variants from the supplement of paper PMC7125110.

B1: glmS ribozyme (parent)
chain: AUAAAAGCGCCAGAACUACAGAAAUGUAGUUGACGAGGAGGAGGUUUAUCGAAUUUUCGGCGGAUGCCUCCAAA

Conditions in all cases: with glucosamine-6-phosphate
Variants of B1 are the subject of data set [1]. The data set is described as follows: self-cleavage kobs at 40 uM GlcN6P; higher = faster cleavage; RNA array. In a few lines:
(§1)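 Barcoded ribozyme variants were transcribed in situ on sequenced MiSeq chips by E. coli RNA polymerase. At 37 °C, a hybridised Cy3 probe tracked them while glucosamine-6-phosphate (40 μM to 10 mM) in HEPES/KCl/Mg(OAc)2 buffer flowed in and tiles were imaged over ~14 h. Per-tile medians of signals normalised to baseline and to non-cleaving reference variants were fit to one- or two-exponential decays, giving kobs. kcat and KM came from weighted Michaelis–Menten fits across concentrations.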

Data set [2] covers variants of B1. The experiment in a line: self-cleavage kobs at 10000 uM GlcN6P; higher = faster cleavage; RNA array. A digest of the protocol:
as §1

Data set [3] covers variants of B1. The experiment in a line: self-cleavage kobs at 160 uM GlcN6P; higher = faster cleavage; RNA array. In a few lines:
as §1

Variants of B1 are the subject of data set [4]. The experiment in a line: self-cleavage kobs at 640 uM GlcN6P; higher = faster cleavage; RNA array. A digest of the protocol: as §1
Variants of B1 are the subject of data set [5]. The experiment in a line: self-cleavage kobs at 2500 uM GlcN6P; higher = faster cleavage; RNA array. A digest of the protocol:
as §1

± gives the standard error. Fewer inactive variants are shown than the library holds.

AUAAAAGCGCCAGAACUACAGAAAUGUAGUUGGCGAGGAGGAGGUUUAUCGAAUUUUCGGCAGAUGCCUCCAAA [A33G G62A]: the “self-cleavage kobs at 40 uM GlcN6P” value in data set [1] was under 1e-05 s⁻¹. Moreover, the “self-cleavage kobs at 10000 uM GlcN6P” value in data set [2] is under 1e-05 s⁻¹.
Regarding AUAAAAGCGCCAGAACUACAGAAAUGUAGUUGACGAGGUGGAGGUUUAUCGAAUUUUCGUCGGAUGCCUCCAAA [A39U G60U], the “self-cleavage kobs at 40 uM GlcN6P” value in data set [1] was under 1e-05 s⁻¹. In addition, the “self-cleavage kobs at 160 uM GlcN6P” value in data set [3] is under 1e-05 s⁻¹. Further, in data set [4], the “self-cleavage kobs at 640 uM GlcN6P” value is under 1e-05 s⁻¹. Further, the “self-cleavage kobs at 10000 uM GlcN6P” value in data set [2] is under 1e-05 s⁻¹.
In the case of AUAAAAGUGCCAGAACUACAGAAAUGUAGUUGACGAGUAGGAGGUUUAUCGAAUUUUCGGCGGAUGCCUCCAAA [C8U G38U], the “self-cleavage kobs at 40 uM GlcN6P” value in data set [1] was under 1e-05 s⁻¹. Also, in data set [3], the “self-cleavage kobs at 160 uM GlcN6P” value was under 1e-05 s⁻¹. For the same variant, the “self-cleavage kobs at 2500 uM GlcN6P” value in data set [5] was under 1e-05 s⁻¹.
With AUAAAAGCGCCUGAACUACAGAAAUGUAUUUGACGAGGAGGAGGUUUAUCGAAUUUUCGGCGGAUGCCUCCAAA [A12U G29U], the “self-cleavage kobs at 40 uM GlcN6P” value in data set [1] worked out at 0.000958 ± 0.00022 s⁻¹. The “self-cleavage kobs at 10000 uM GlcN6P” value in data set [2] turned out to be 0.019 ± 0.0045 s⁻¹.
In the case of AUAAAAGCGCCAGAACUACAGAAAUGUAGGUGACGAGGAGGAGGUUUAUCGAAUUUUGGGCGGAUGCCUCCAAA [U30G C58G], the “self-cleavage kobs at 40 uM GlcN6P” value in data set [1] was under 1e-05 s⁻¹. The “self-cleavage kobs at 640 uM GlcN6P” value in data set [4] is 6.88e-05 ± 3e-05 s⁻¹. Besides, in data set [5], the “self-cleavage kobs at 2500 uM GlcN6P” value was found to be 6.46e-05 ± 1.8e-05 s⁻¹. For the same variant, the “self-cleavage kobs at 10000 uM GlcN6P” value in data set [2] is 0.000122 ± 1.4e-05 s⁻¹.
AUAAAGGCGCCAGAACUACAGAAAUGUAGGUGACUAGGAGGAGGCUUAUCGAAUUUUCUGCGGAUGCCUCCAAA [A6G U30G G35U U45C G59U]: the “self-cleavage kobs at 40 uM GlcN6P” value in data set [1] is under 1e-05 s⁻¹. Also, the “self-cleavage kobs at 10000 uM GlcN6P” value in data set [2] is under 1e-05 s⁻¹.
Turning to AUAAACGCGCCAGAACUACAGAAAUGUAGUUGACGAGGAGGAGGUGUAUCGAAUUUUCGGCGGAUGCCUCCAAA [A6C U46G], the “self-cleavage kobs at 40 uM GlcN6P” value in data set [1] is under 1e-05 s⁻¹. The “self-cleavage kobs at 160 uM GlcN6P” value in data set [3] is under 1e-05 s⁻¹.
Turning to AUAAAAACGCCAGAACUACAGAAAUGUAGUUGACGAGGAGGAGGUUUAUCGAAUUUUCGGCCGAUGCCUCCAAA [G7A G62C], in data set [1], the “self-cleavage kobs at 40 uM GlcN6P” value is under 1e-05 s⁻¹. The “self-cleavage kobs at 160 uM GlcN6P” value in data set [3] is under 1e-05 s⁻¹. The “self-cleavage kobs at 640 uM GlcN6P” value in data set [4] was under 1e-05 s⁻¹. Besides, the “self-cleavage kobs at 2500 uM GlcN6P” value in data set [5] was under 1e-05 s⁻¹.
AUAAAAGCGCCAGAACUACAGAAAUGUAGUUGACGAGGUGGAAGUUUAUUGAAUUUUCGGCGGAUGCCUCCAAA [A39U G43A C50U]: in data set [1], the “self-cleavage kobs at 40 uM GlcN6P” value is under 1e-05 s⁻¹.
On to AUAAAAGCGCCAGAACUACAGAAAUGUAGUUGACGAGGAGGAGGUUUAUGGAAUUUUCGCCGGAUGUCUCCAAA [C50G G60C C67U], for which the “self-cleavage kobs at 40 uM GlcN6P” value in data set [1] was found to be 6.17e-05 ± 1.7e-05 s⁻¹. In addition, the “self-cleavage kobs at 640 uM GlcN6P” value in data set [4] turned out to be 0.000438 ± 0.00012 s⁻¹. For the same variant, the “self-cleavage kobs at 2500 uM GlcN6P” value in data set [5] was 0.000124 ± 3.4e-05 s⁻¹. Besides, the “self-cleavage kobs at 10000 uM GlcN6P” value in data set [2] was found to be 4.29e-05 ± 1.2e-05 s⁻¹.
As for AUAAAAGCGCCAGAACUACAGAAAUGUAGGUGACGAGGAGGAGGUUUAUCGAAUUUUCGGCGGUUGCCUCCAAA [U30G A64U], in data set [1], the “self-cleavage kobs at 40 uM GlcN6P” value is under 1e-05 s⁻¹. Besides, the “self-cleavage kobs at 160 uM GlcN6P” value in data set [3] was under 1e-05 s⁻¹.
In the case of AUAAAAGCGCCAGAACUACAGAAAUGUAGUUGACGAGGAGGAUGUUUAUCGUAUUUUCGGCGGAUGCCUCCAAA [G43U A52U], the “self-cleavage kobs at 40 uM GlcN6P” value in data set [1] was under 1e-05 s⁻¹. Further, in data set [3], the “self-cleavage kobs at 160 uM GlcN6P” value was under 1e-05 s⁻¹.
As to AUAAAAGCUCCAGAACUACAGAAAUGUAGUUGACGAGGAGGAGGUUUAUCGAUUUUUCGGCGGAUGCCUCCAAA [G9U A53U], the “self-cleavage kobs at 40 uM GlcN6P” value in data set [1] is under 1e-05 s⁻¹. For the same variant, the “self-cleavage kobs at 160 uM GlcN6P” value in data set [3] is under 1e-05 s⁻¹. In addition, the “self-cleavage kobs at 640 uM GlcN6P” value in data set [4] was under 1e-05 s⁻¹. Moreover, the “self-cleavage kobs at 10000 uM GlcN6P” value in data set [2] was under 1e-05 s⁻¹.
On to AUAAAAUCGCCAGAACUACAGAAAUGUAGUUGACGAGGAGGAUGUUUAUCGGAUUUUCGGCGGAUGCAUUCAAA [G7U G43U A52G C68A C70U], for which the “self-cleavage kobs at 40 uM GlcN6P” value in data set [1] is under 1e-05 s⁻¹.
